Biological target: 60S ribosomal subunit-nascent chain complex made from F-VHP-β RNCs (not stated | rabbit (endogenous in reticulocyte lysate, RRL)) (UniProt G1TSG1)

FLAG-tagged human Listerin (from UniProt O94822 1-1766) (enzyme)
ubiquitination of 60S versus 80S nascent chain complexes, separated on a sucrose gradient and given purified Listerin, E1, E2, ubiquitin and ATP (Figure S4E): 10 fold

From paper PMC4175178
